Reference: patent US10851152B2, “Polymerized peptide and gel having collagen-like structure” (WASEDA UNIVERSITY, priority 2015, dated 2020)
No end group written: not given here.

Tests used:
[1] = Remaining thiol group (Ellman's reagent) in oxidative polymerization reaction; assay type: physicochemical; details: 10% DMSO, peptide 1% (w/v)
Protocol: Degassed water was used to prepare a peptide solution having a concentration of 1.11% (w/v), and the solution was then put into a PCR tube. After heating this solution at 80° C. for 5 min, it was then left to sand still at 4° C. overnight. By adding DMSO to this solution, there was prepared a peptide solution having a final concentration of 10% DMSO, peptide 1% (w/v). The PCR tube was then filled with a mineral oil in a way such that the mineral oil covered the surface of the solution. In every measurement, the mineral oil was eliminated from the peptide solution to prepare a peptide solution for oxidation monitoring. Ellman's reagent was prepared in a way such that 9 mg/ml of DTNB was present in 50 mM of a phosphate buffer solution (pH 8.4). 33 mM phosphate buffer solution (pH 8.4) and Ellman's reagent 1.5 mg/ml were left to stand for […], then a light absorbance was then measured after a solution with a final concentration of peptide 0.167 mg/ml. Recorded were changes in absorbance with time, with a moment when DMSO was added being a starting point (0 hour). Since the Ellman's reagent generates 5-mercapto-2-nitrobenzoate (λ max=412 nm, ε=1.55×10^4) depending on the amount of thiol groups (referred to as “SH groups” hereunder) in the peptide, measured was a absorbance at 412 nm. After the measurement, optical path length was compensated by measuring absorbance at 997 nm and 900 nm.

[2] = CD spectrum measurement of triple-helical structure and its thermal stability; assay type: physicochemical; details: 225 nm; temperature gradient 18° C./h
Protocol: The structure of the peptide was confirmed by CD spectrum (circular dichroism spectrometer J-820, JASCO Corporation). A peptide powder was dissolved in a degassed 0.05% TFA/H2O to prepare a solution of 1 mg/ml. After heating at 80° C. for 5 min, the solution was left to stand at 4° C. overnight to cause refolding as a measurement sample. CD spectrum was measured under the conditions of: temperature 4° C., 37° C., 80° C.; cell length 0.05 cm; sensitivity standard (100 mdeg); measurement wavelength 250 to 190 nm; data collection interval 0.2 nm; scanning speed 50 nm/min; response 0.5 sec; band width 1 nm; cumulated number 4. A signal obtained (θobs) was expressed as a residue average molar ellipticity (θmrw). θmrw was calculated by the following formula.
A thermal stability of the triple-helical structure was observed by monitoring θmrw, 225 associated with a change in temperature. The measurement conditions were: 4 to 75° C. or 4 to 90° C.; cell length 0.05 cm; measurement wavelength 225 nm; data collection interval 0.5° C.; temperature gradient 18° C./h; sensitivity standard (100 mdeg); response 2 sec; band width 1 nm. It was determined that the triple-helical structure completely turned into a random coil structure in a region where the signal was linearly diminishing.

[3] = Hydrogel stability to reduction treatment (DTT) or water with pipetting; assay type: physicochemical; details: water added instead of reducing solution; pipetting about 90 times/min
Protocol: There, verification was made on whether gel caused a collapse by breaking the disulfide cross-linking by a reduction treatment. A reducing solution of 100 μl (100 mM DTT, 50 mM phosphate buffer solution (pH 8.4)) or water was added to the hydrogel (30 μl) prepared. […] Then, pipetting procedure was respectively performed at a frequency of about 90 times/min and a volume of 100 μl/each time, using a yellow tip (up to 200 μl).

[4] = Thermal stability of hydrogel (sinking of stainless ball); assay type: physicochemical; details: hydrogel of 1% (w/v) peptide; 10 min per temperature
Protocol: After mounting the stainless ball on the hydrogel prepared, they were moved to a thermostatic device, and were left to stand for 10 min at various temperatures between 35° C. and 95° C. Whether gel collapse had occurred was determined by judging the sinking of the stainless ball.

[5] = Hydrogel formation judged by holding of a stainless ball; assay type: physicochemical; set-up: key to gel formation, Time (hour) 9 / gel formation, Time (hour) 12 / gel formation, Time (hour) 15 / gel formation, Time (hour) 24 / gel formation, Time (hour) 32 / gel formation, Time (hour) 74 / gel formation, Peptide concentration 0.1% (w/v) / gel formation, Peptide concentration 0.2% (w/v) / gel formation, Peptide concentration 0.3% (w/v) / gel formation, Peptide concentration 0.5% (w/v) / gel formation, Peptide concentration 0.7% (w/v) / gel formation, Peptide concentration 1.0% (w/v): ◯: Gelated; X: Failed to gelate
Protocol: Degassed water was used to prepare a peptide solution having a concentration of 1.11% (w/v) or 1.66% (w/v), and the solution was then put into a PCR tube. After heating this solution at 80° C. for 5 min using a polymerase chain reaction (PCR) machine (TaKaRa PCR Thermal Cycler, TAKARA BIO INC.), the solution was then left to stand at 4° C. overnight. By adding DMSO and water to this solution, there was prepared a peptide solution having a concentration of 10% DMSO, 0.1 to 1.5% (w/v). The PCR tube was then filled with a mineral oil in a way such that the mineral oil covered the liquid surface, followed by allowing the solution to stand at room temperature for a given period of time to achieve a gel. Then, gel formation was determined by looking at whether a stainless ball could be held by the gel.

[6] = test system: human fibroblast (HDF); test: Adhesion of human fibroblasts to polymerized peptide with RGD motif linked via linker; assay type: cell-based; details: 37° C., about an hour
Protocol: CCC2-KGHRGF (SEQ ID NO. 18) was synthesized by a method similar to that of example 2. After forming triple helix with such CCC2-KGHRGF (SEQ ID NO: 18) at 1.11 mg/ml, DMSO was added to the concentration of 10%, and a mineral oil was then layered thereon, followed by oxidized and polymerized at room temperature for a week. Next, the polymerized peptide employing CCC2-KGHRGF (SEQ ID NO: 18) was diluted to 30 μg/ml, and a 96-well plate was then coated with such polymerized peptide overnight. Then, the solution was removed, followed by adding thereto 1 mg/ml BS (PEG)5 (by Pierce, catalog No. 21581) dissolved in a 5 mg/ml NaHCO3 aqueous solution, and then reacted at room temperature for about an hour to bind the linker. Next, there was added 10 mM ethanolamine (EA) or 100 μg/ml RGD pep (SEQ ID NO. 22) dissolved in a 5 mg/ml NaHCO3 aqueous solution, followed by allowing reaction to link CCC2-KGHRGF (SEQ ID NO: 18) to the linker at room temperature for about an hour.
5 mg/ml BSA was added to a gel linked with the above RGD motif, to perform blocking for about an hour. […] After air drying, microscopic observation was carried out, and there was evaluated a binding ability of HDF to the RGD motif linked to such polymerized peptide via a linker.

[7] = test system: human dermal fibroblasts (HDF); test: Cell adhesion assay with multifunctional polymerized gel; assay type: cell-based; details: gels with 1% by weight CCC2-GFOGER (short) triple-chain peptide unless ligand free; 37° C., three hours
Protocol: CCC2-GPOGPR (short) (SEQ ID NO. 10), CC2-GPOGPR (short) (SEQ ID NO. 23) or C2-GPOGPR (short) (SEQ ID NO. 24) was respectively dissolved in a degassed ultrapure water, followed by heating it at 80° C. for 5 min, and then stranded at 4° C. overnight to form triple helix. These were mixed at various ratios, and DMSO was then added thereto in a way such that a final concentration became 10%, followed by adding them into a 96-well plate by 50 μL each. At that time, a triple-chain peptide containing CCC2-GFOGER (short) (SEQ ID NO. 11) of a weight ratio 1% was added to all the peptide mixture liquids, and those to which the triple-chain peptide was not added were recited as “Ligand-free.” This plate was then left to stand Mill in a container filled with 10% DMSO for four days or longer to turn the peptide solution into a gel. These gels were able to dilute DMSO by immersion in a cell culture medium overnight, and then used in the following experiments employing cells. Here, type I collagen was used as a positive control.
The human dermal fibroblasts (HDF) were stripped with 0.05% trypsin/EDTA, followed by centrifuged at 800 rpm in a 15 mL tube to collect the cells. […]

Substance: CC(POG)6PRG(POG)5CC (CCPPGPPGPPGPPGPPGPPGPRGPPGPPGPPGPPGPPGCC; not fully specified; hydroxyproline; MOD_RES (4)..(4) 4-Hydroxyproline; MOD_RES (7)..(7) 4-Hydroxyproline; MOD_RES (10)..(10) 4-Hydroxyproline; MOD_RES (13)..(13) 4-Hydroxyproline; MOD_RES (16)..(16) 4-Hydroxyproline; MOD_RES (19)..(19) 4-Hydroxyproline; MOD_RES (25)..(25) 4-Hydroxyproline; MOD_RES (28)..(28) 4-Hydroxyproline; MOD_RES (31)..(31) 4-Hydroxyproline; MOD_RES (34)..(34) 4-Hydroxyproline; MOD_RES (37)..(37) 4-Hydroxyprolin) [CC2]
- time in which peptide turned into a gel [1]: 74 h
- thermal denaturation (change in θ225 as temperature changed) [2]: about 75 °C
- gel collapse on adding water [3]: gel collapse was observed
- temperature at which the stainless ball completely sank [4]: 95 °C
- gel-forming capability ([5]; 1% (w/v) peptide, 10% DMSO, room temperature, up to three days): capable of turning into gels
- gel formation, Time (hour) 9 ([5]; 1% (w/v) peptide, 9 hour): X
- gel formation, Time (hour) 12 ([5]; 1% (w/v) peptide, 12 hour): X
- gel formation, Time (hour) 15 ([5]; 1% (w/v) peptide, 15 hour): X
- gel formation, Time (hour) 24 ([5]; 1% (w/v) peptide, 24 hour): X
- gel formation, Time (hour) 32 ([5]; 1% (w/v) peptide, 32 hour): ◯
- gel formation, Time (hour) 74 ([5]; 1% (w/v) peptide, 74 hour): ◯
- gel formation, Peptide concentration 0.3% (w/v) ([5]; oxidizing conditions: room temperature, three days, 0.3% (w/v)): X
- gel formation, Peptide concentration 0.5% (w/v) ([5]; oxidizing conditions: room temperature, three days, 0.5% (w/v)): X
- gel formation, Peptide concentration 0.7% (w/v) ([5]; oxidizing conditions: room temperature, three days, 0.7% (w/v)): X
- gel formation, Peptide concentration 1.0% (w/v) ([5]; oxidizing conditions: room temperature, three days, 1.0% (w/v)): ◯

Substance: GRGDS-NH2 [soluble RGD, soluble peptide having the RGD motif, as a control]
- adhesion of HDF [6]: binding ability of HDF was not exhibited

Substance: CCC(POG)4FOGERG(POG)4CCC [CCC2-GFOGER (short)]
- adhesion and aggregation of human dermal fibroblasts on gel [7]: each human dermal fibroblast elongated and adhered respectively
